Assay [1] addresses Acetylcholine binding protein (AChBP) from Lymnaea stagnalis (L. stagnalis) (UniProt P58154). Put plainly: SPR. (SPR reads the build-up and loss of mass on a sensor chip optically.)
Assay [2] has the same target. Put plainly: radioligand binding.
The target of assay [3] is Muscle-type nAChR of Torpedo californica electric organ (Torpedo californica). The experiment in a line: radioligand binding.
The target in assay [4] is Human α7 nAChR expressed in GH4C1 cells (human) (UniProt P36544). Put plainly: radioligand binding.
Sequence of Human α7 nAChR expressed in GH4C1 cells (human) (P36544 23-502): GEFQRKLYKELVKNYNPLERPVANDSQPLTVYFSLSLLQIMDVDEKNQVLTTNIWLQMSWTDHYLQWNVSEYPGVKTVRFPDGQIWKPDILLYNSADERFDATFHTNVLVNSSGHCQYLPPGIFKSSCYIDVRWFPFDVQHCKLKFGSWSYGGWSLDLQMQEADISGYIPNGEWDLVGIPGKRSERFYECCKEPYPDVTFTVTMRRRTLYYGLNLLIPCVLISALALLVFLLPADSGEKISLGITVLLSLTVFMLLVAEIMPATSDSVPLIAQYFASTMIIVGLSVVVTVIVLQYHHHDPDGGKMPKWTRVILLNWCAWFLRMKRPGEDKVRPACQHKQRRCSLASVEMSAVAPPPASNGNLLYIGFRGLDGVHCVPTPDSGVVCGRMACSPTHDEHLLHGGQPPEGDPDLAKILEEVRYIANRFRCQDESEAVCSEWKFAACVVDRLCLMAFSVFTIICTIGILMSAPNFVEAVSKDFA

Sequence of Muscle-type nAChR of Torpedo californica electric organ (Torpedo californica) (P02710 25-461, chain 1 of 4): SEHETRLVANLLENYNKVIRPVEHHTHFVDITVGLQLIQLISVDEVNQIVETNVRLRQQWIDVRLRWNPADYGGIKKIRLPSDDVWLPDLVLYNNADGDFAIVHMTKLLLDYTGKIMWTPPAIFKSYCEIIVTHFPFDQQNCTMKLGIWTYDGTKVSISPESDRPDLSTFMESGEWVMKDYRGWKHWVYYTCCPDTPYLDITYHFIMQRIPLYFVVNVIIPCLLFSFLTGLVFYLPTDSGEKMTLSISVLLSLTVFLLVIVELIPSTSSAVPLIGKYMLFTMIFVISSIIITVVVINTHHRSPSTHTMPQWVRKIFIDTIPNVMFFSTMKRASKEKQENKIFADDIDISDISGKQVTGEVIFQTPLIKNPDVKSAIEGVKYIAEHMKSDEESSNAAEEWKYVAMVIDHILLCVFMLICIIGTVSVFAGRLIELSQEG
Sequence of Muscle-type nAChR of Torpedo californica electric organ (Torpedo californica) (P02712 25-493, chain 2 of 4, further chain): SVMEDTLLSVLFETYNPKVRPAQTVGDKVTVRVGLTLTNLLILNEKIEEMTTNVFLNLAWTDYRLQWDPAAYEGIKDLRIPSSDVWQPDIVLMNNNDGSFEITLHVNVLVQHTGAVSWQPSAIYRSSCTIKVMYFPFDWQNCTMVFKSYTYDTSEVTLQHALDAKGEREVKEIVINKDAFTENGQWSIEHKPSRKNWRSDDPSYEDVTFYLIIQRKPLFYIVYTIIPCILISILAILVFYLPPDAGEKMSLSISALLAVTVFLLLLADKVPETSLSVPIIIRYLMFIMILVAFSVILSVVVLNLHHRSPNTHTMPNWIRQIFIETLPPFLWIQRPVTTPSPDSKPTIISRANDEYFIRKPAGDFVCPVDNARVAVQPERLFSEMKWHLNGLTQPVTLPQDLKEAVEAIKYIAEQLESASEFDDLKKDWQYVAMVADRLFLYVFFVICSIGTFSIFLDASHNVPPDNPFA
Sequence of Muscle-type nAChR of Torpedo californica electric organ (Torpedo californica) (P02714 18-506, chain 3 of 4, further chain): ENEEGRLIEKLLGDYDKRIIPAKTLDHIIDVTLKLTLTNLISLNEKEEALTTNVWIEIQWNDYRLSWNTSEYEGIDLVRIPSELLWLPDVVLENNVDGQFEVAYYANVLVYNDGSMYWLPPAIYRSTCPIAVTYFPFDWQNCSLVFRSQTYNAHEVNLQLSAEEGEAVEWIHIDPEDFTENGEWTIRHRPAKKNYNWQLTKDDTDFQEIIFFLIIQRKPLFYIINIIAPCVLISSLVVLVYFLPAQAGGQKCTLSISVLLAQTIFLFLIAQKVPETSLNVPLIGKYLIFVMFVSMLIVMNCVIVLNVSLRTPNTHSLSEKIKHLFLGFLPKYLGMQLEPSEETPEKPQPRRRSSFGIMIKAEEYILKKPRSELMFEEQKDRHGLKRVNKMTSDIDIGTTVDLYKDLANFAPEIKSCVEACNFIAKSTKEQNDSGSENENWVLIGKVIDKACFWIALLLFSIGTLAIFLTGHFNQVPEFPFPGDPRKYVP
Sequence of Muscle-type nAChR of Torpedo californica electric organ (Torpedo californica) (P02718 22-522, chain 4 of 4, further chain): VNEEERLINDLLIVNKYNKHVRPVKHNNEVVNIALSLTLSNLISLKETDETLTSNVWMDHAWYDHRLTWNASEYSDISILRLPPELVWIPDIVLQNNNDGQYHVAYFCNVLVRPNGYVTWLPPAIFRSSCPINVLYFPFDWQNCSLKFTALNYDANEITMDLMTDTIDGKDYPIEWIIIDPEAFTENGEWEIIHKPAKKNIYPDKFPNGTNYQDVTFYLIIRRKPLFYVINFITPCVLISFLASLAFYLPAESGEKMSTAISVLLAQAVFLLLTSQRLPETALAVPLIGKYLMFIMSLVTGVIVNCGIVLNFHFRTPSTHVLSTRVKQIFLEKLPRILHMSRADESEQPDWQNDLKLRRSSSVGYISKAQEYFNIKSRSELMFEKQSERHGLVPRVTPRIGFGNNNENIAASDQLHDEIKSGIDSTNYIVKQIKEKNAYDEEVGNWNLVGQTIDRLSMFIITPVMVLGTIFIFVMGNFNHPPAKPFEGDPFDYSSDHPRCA
Sequence of Acetylcholine binding protein (AChBP) from Lymnaea stagnalis (L. stagnalis) (P58154 20-229): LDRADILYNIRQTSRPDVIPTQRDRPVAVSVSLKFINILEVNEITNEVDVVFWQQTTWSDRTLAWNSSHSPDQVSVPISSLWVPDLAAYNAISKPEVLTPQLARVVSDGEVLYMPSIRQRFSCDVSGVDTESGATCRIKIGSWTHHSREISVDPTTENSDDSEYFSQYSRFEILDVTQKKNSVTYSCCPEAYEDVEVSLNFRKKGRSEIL

By Kd is commonly meant a measure of binding affinity in units of concentration. A high value points to a looser complex. As a reminder, the IC50 is the concentration that inhibits the measured activity by half. A high value points to weaker potency in that assay. As for “Crotoxin from Crotalus durissus terrificus venom (complex)”, the dissociation constant Kd in assay [1] came out at 120 nM. The same substance had a half-inhibitory concentration (IC50) in assay [2] of 640 nM. Moreover, in assay [3], the IC50, high affinity site (two-site model) stood at 30 nM and the IC50, low affinity site (two-site model) amounted to 260 nM. Besides, in assay [4], the IC50, high affinity site (two-site model) was 4.9 nM and the IC50, low affinity site (two-site model) is 15 µM.
